Data as given in US20250388881A1, “METHOD FOR IMPROVING THERMOSTABILITY OF PHYTASE, MUTANT AND USE” (priority 2022, published 2025).

Tests used:
[1] = test system: O=P(O)(O)O[C@H]1[C@H](OP(=O)(O)O)[C@@H](OP(=O)(O)O)[C@H](OP(=O)(O)O)[C@@H](OP(=O)(O)O)[C@H]1OP(=O)(O)O; assay: Determination of dynamic parameters on sodium phytate: mutant R271C/E413C; type: biochemical, Yersinia intermedia; settings: other: R271C/E413C, 37° C., pH 5.5, sodium phytate 0.05 to 1.00 mM
[2] = test system: O=P(O)(O)O[C@H]1[C@H](OP(=O)(O)O)[C@@H](OP(=O)(O)O)[C@H](OP(=O)(O)O)[C@@H](OP(=O)(O)O)[C@H]1OP(=O)(O)O; assay: Determination of dynamic parameters on sodium phytate: mutant G365D; type: biochemical, Yersinia intermedia; settings: other: G365D, 37° C., pH 5.5, sodium phytate 0.05 to 1.00 mM
[3] = test system: O=P(O)(O)O[C@H]1[C@H](OP(=O)(O)O)[C@@H](OP(=O)(O)O)[C@H](OP(=O)(O)O)[C@@H](OP(=O)(O)O)[C@H]1OP(=O)(O)O; assay: Determination of dynamic parameters on sodium phytate: mutant G101C/V116C; type: biochemical, Yersinia intermedia; settings: other: G101C/V116C, 37° C., pH 5.5, sodium phytate 0.05 to 1.00 mM
[4] = test system: O=P(O)(O)O[C@H]1[C@H](OP(=O)(O)O)[C@@H](OP(=O)(O)O)[C@H](OP(=O)(O)O)[C@@H](OP(=O)(O)O)[C@H]1OP(=O)(O)O; assay: Determination of dynamic parameters on sodium phytate: mutant E282L; type: biochemical, Yersinia intermedia; settings: other: E282L, 37° C., pH 5.5, sodium phytate 0.05 to 1.00 mM
[5] = test system: O=P(O)(O)O[C@H]1[C@H](OP(=O)(O)O)[C@@H](OP(=O)(O)O)[C@H](OP(=O)(O)O)[C@@H](OP(=O)(O)O)[C@H]1OP(=O)(O)O; assay: Determination of dynamic parameters on sodium phytate: mutant A57C/A103C; type: biochemical, Yersinia intermedia; settings: other: A57C/A103C, 37° C., pH 5.5, sodium phytate 0.05 to 1.00 mM
[6] = target: Yersinia intermedia phytase APPAmut4 (parent), SEQ ID NO: 1 (Yersinia intermedia, UniProt Q000T0, A346L/M382L/V109D/Y74E); assay: Determination of dynamic parameters on sodium phytate: phytase APPAmut4; type: biochemical; settings: 37° C., pH 5.5, sodium phytate 0.05 to 1.00 mM
[7] = target: Yersinia intermedia phytase APPAmut4 (SEQ ID NO: 1) mutant A147C/Y268C (Yersinia intermedia, UniProt Q000T0, A170C/A346L/M382L/V109D/Y291C/Y74E); assay: Determination of dynamic parameters on sodium phytate: mutant A147C/Y268C; type: biochemical; settings: 37° C., pH 5.5, sodium phytate 0.05 to 1.00 mM
[8] = target: Yersinia intermedia phytase APPAmut4 (SEQ ID NO: 1) mutant G65R (Yersinia intermedia, UniProt Q000T0, A346L/G88R/M382L/V109D/Y74E); assay: Determination of dynamic parameters on sodium phytate: mutant G65R; type: biochemical; settings: 37° C., pH 5.5, sodium phytate 0.05 to 1.00 mM
[9] = test system: O=P(O)(O)O[C@H]1[C@H](OP(=O)(O)O)[C@@H](OP(=O)(O)O)[C@H](OP(=O)(O)O)[C@@H](OP(=O)(O)O)[C@H]1OP(=O)(O)O; assay: Determination of dynamic parameters on sodium phytate: mutant A147C/Y268C; type: biochemical, Yersinia intermedia; settings: other: A147C/Y268C, 37° C., pH 5.5, sodium phytate 0.05 to 1.00 mM
[10] = test system: O=P(O)(O)O[C@H]1[C@H](OP(=O)(O)O)[C@@H](OP(=O)(O)O)[C@H](OP(=O)(O)O)[C@@H](OP(=O)(O)O)[C@H]1OP(=O)(O)O; assay: Determination of dynamic parameters on sodium phytate: mutant G65R; type: biochemical, Yersinia intermedia; settings: other: G65R, 37° C., pH 5.5, sodium phytate 0.05 to 1.00 mM
[11] = test system: O=P(O)(O)O[C@H]1[C@H](OP(=O)(O)O)[C@@H](OP(=O)(O)O)[C@H](OP(=O)(O)O)[C@@H](OP(=O)(O)O)[C@H]1OP(=O)(O)O; assay: Determination of dynamic parameters on sodium phytate: phytase APPAmut4; type: biochemical, Yersinia intermedia; settings: other: APPAmut4, 37° C., pH 5.5, sodium phytate 0.05 to 1.00 mM
[12] = test system: O=P(O)(O)O[C@H]1[C@H](OP(=O)(O)O)[C@@H](OP(=O)(O)O)[C@H](OP(=O)(O)O)[C@@H](OP(=O)(O)O)[C@H]1OP(=O)(O)O; assay: Determination of dynamic parameters on sodium phytate: mutant R353C/L401C; type: biochemical, Yersinia intermedia; settings: other: R353C/L401C, 37° C., pH 5.5, sodium phytate 0.05 to 1.00 mM

Yersinia intermedia phytase APPAmut4 (SEQ ID NO: 1) mutant R271C/E413C (Yersinia intermedia; A346L/E436C/M382L/R294C/V109D/Y74E)
Km [1]: 0.18 ± 0.03 mM | Vmax [1]: 3180 µmol/min/mg | kcat [1]: 2410 ± 154 s⁻¹ | kcat/Km [1]: 1.34e+07 ± 1.54e+06 M⁻¹ s⁻¹

Yersinia intermedia phytase APPAmut4 (SEQ ID NO: 1) mutant G365D (Yersinia intermedia; A346L/G388D/M382L/V109D/Y74E)
Km [2]: 0.14 ± 0.02 mM | Vmax [2]: 2410 µmol/min/mg | kcat [2]: 1830 ± 58 s⁻¹ | kcat/Km [2]: 1.32e+07 ± 1.15e+06 M⁻¹ s⁻¹

Yersinia intermedia phytase APPAmut4 (SEQ ID NO: 1) mutant G101C/V116C (Yersinia intermedia; A346L/G124C/M382L/V109D/V139C/Y74E)
Km [3]: 0.20 ± 0.03 mM | Vmax [3]: 2930 µmol/min/mg | kcat [3]: 2230 ± 119 s⁻¹ | kcat/Km [3]: 1.11e+07 ± 1.13e+06 M⁻¹ s⁻¹

Yersinia intermedia phytase APPAmut4 (SEQ ID NO: 1) mutant E282L (Yersinia intermedia; A346L/E305L/M382L/V109D/Y74E)
Km [4]: 0.15 ± 0.02 mM | Vmax [4]: 2300 µmol/min/mg | kcat [4]: 1750 ± 67 s⁻¹ | kcat/Km [4]: 1.13e+07 ± 967000 M⁻¹ s⁻¹

Yersinia intermedia phytase APPAmut4 (SEQ ID NO: 1) mutant A57C/A103C (Yersinia intermedia; A126C/A346L/A80C/M382L/V109D/Y74E)
Km [5]: 0.18 ± 0.03 mM | Vmax [5]: 2840 µmol/min/mg | kcat [5]: 2160 ± 130 s⁻¹ | kcat/Km [5]: 1.21e+07 ± 1.37e+06 M⁻¹ s⁻¹

O=P(O)(O)O[C@H]1[C@H](OP(=O)(O)O)[C@@H](OP(=O)(O)O)[C@H](OP(=O)(O)O)[C@@H](OP(=O)(O)O)[C@H]1OP(=O)(O)O [sodium phytate]
kcat/Km [6]: 12322 mM⁻¹ s⁻¹ | kcat/Km [7]: 10823 mM⁻¹ s⁻¹ | kcat/Km [8]: 9009 mM⁻¹ s⁻¹

Yersinia intermedia phytase APPAmut4 (SEQ ID NO: 1) mutant A147C/Y268C (Yersinia intermedia; A170C/A346L/M382L/V109D/Y291C/Y74E)
Km [9]: 0.22 ± 0.03 mM | Vmax [9]: 3140 µmol/min/mg | kcat [9]: 2380 ± 124 s⁻¹ | kcat/Km [9]: 1.08e+07 ± 1.02e+06 M⁻¹ s⁻¹

Yersinia intermedia phytase APPAmut4 (SEQ ID NO: 1) mutant G65R (Yersinia intermedia; A346L/G88R/M382L/V109D/Y74E)
Km [10]: 0.22 ± 0.04 mM | Vmax [10]: 2630 µmol/min/mg | kcat [10]: 2000 ± 77 s⁻¹ | kcat/Km [10]: 9.01e+06 ± 992000 M⁻¹ s⁻¹

Yersinia intermedia phytase APPAmut4 (parent), SEQ ID NO: 1 (Yersinia intermedia; A346L/M382L/V109D/Y74E)
Km [11]: 0.14 ± 0.03 mM | Vmax [11]: 2270 µmol/min/mg | kcat [11]: 1720 ± 72 s⁻¹ | kcat/Km [11]: 1.23e+07 ± 1.58e+06 M⁻¹ s⁻¹

Yersinia intermedia phytase APPAmut4 (SEQ ID NO: 1) mutant R353C/L401C (Yersinia intermedia; A346L/L424C/M382L/R376C/V109D/Y74E)
Km [12]: 0.20 ± 0.02 mM | Vmax [12]: 3400 µmol/min/mg | kcat [12]: 2580 ± 124 s⁻¹ | kcat/Km [12]: 1.29e+07 ± 955000 M⁻¹ s⁻¹
